Assay results published in publication PMC12903857 (2026).
No end group written: not given here.

Experiments:
[1] = molecular target: T1, 14-3-3σ (UniProt P31947 1-248); test: FP; 100 uM compound 18
T1 chain: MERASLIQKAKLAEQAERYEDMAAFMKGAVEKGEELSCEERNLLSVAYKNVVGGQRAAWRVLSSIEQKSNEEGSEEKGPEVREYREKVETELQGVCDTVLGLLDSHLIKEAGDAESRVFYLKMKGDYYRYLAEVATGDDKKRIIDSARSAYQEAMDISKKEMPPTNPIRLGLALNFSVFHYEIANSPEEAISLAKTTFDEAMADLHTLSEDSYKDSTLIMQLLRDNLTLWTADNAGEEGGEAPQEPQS

[2] = molecular target: T1, 14-3-3σ; test: FP; 100 uM compound 46
[3] = molecular target: T1, 14-3-3σ; test: FP; 100 uM compound 21
[4] = molecular target: T1, 14-3-3σ; test: FP; DMSO (reference for compounds 24, 30, 31)
[5] = molecular target: T1, 14-3-3σ; test: FP; 100 uM compound 40
[6] = molecular target: T1, 14-3-3σ; test: FP; DMSO (reference for compound 11)
[7] = molecular target: T1, 14-3-3σ; test: FP; 100 uM compound 33
[8] = molecular target: T1, 14-3-3σ; test: FP; DMSO (reference for compounds 12, 18, 21, 36, 39, 40)
[9] = molecular target: T1, 14-3-3σ; test: FP; 100 uM compound 30
[10] = molecular target: T1, 14-3-3σ; test: FP; DMSO (reference for compound 80)
[11] = molecular target: T1, 14-3-3σ; test: FP; 100 uM compound 80
[12] = molecular target: T1, 14-3-3σ; test: FP; DMSO (reference for compound 70)
[13] = molecular target: T1, 14-3-3σ; test: FP; DMSO (reference for compound 8)
[14] = molecular target: T1, 14-3-3σ; test: FP; 100 uM compound 32
[15] = molecular target: T1, 14-3-3σ; test: FP; 100 uM compound 12
[16] = molecular target: T1, 14-3-3σ; test: FP; 100 uM compound 19
[17] = molecular target: T1, 14-3-3σ; test: FP; 100 uM compound 39
[18] = molecular target: T1, 14-3-3σ; test: FP; 100 uM compound 38
[19] = molecular target: T1, 14-3-3σ; test: FP; 100 uM compound 36
[20] = molecular target: T1, 14-3-3σ; test: FP; DMSO (reference for compounds 19, 33)
[21] = molecular target: T1, 14-3-3σ; test: FP; 100 uM compound 24
[22] = molecular target: T1, 14-3-3σ; test: FP; 100 uM compound 31
[23] = molecular target: T1, 14-3-3σ; test: FP; 100 uM compound 11
[24] = molecular target: T1, 14-3-3σ; test: FP; 100 uM compound 8
[25] = molecular target: T1, 14-3-3σ; test: FP; 100 uM compound 83

B1: FAM-labeled C-RAF259 peptide (10-mer) (peptide)
chain: QRSTSTPNVH
modifications: also: phosphoserine at S259, site in chain not given here, FAM label, site not given here
Binder B1 has a Kd [1] of 280 nM, a Kd [2] of 170 nM and a Kd [3] of 480 nM. For the same binder, the Kd [4] was 2280 nM, the Kd [5] was 320 nM and the Kd [6] was 1320 nM. The Kd [7] was 230 nM, the Kd [8] was 4200 nM and the Kd [9] was 780 nM. It also gave a Kd [10] of 4600 nM, a Kd [11] of 420 nM and a Kd [12] of 5510 nM. It also gave a Kd [13] of 6700 nM, a Kd [14] of 140 nM and a Kd [15] of 190 nM. It also gave a Kd [16] of 213 nM, a Kd [17] of 420 nM and a Kd [18] of 218 nM. The Kd [19] was 240 nM, the Kd [20] was 3050 nM and the Kd [21] was 110 nM. It also gave a Kd [22] of 1420 nM, a Kd [23] of 400 nM and a Kd [24] of 6600 nM. It also gave a Kd [25] of 102 nM.
